Reference: article PMC8062489, “Tgf-β1 transcriptionally promotes 90K expression: possible implications for cancer progression”

Molecular target: rUSF1 (recombinant His-USF1) (UniProt P22415 1-310)
Test: EMSA; 20 mM HEPES (pH not stated), 0.1% NP40, 5 mM MgCl2, 50 mM KCl, 2% glycerol, 2 mM DTT, 50 ng/ml poly(dI-dC), room temperature, 20 ul, 5 ug nuclear extract; 5% native PAGE in 1x TBE
Details: protein: recombinant; tags: N-terminal His-tag; chain copies: 2; label: 5'-32P as probe; blunt

Sequence of rUSF1 (recombinant His-USF1) (P22415 whole entry): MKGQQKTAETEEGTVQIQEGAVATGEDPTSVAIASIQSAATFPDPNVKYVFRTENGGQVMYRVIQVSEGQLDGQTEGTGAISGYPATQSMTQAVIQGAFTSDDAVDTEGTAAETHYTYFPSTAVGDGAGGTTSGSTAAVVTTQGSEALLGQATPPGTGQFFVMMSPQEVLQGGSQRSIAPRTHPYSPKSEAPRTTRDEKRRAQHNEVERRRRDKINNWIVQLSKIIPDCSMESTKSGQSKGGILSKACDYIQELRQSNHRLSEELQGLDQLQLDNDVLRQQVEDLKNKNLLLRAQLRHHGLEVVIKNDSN

| Binder | binding result |
| --- | --- |
| EWT (E, consensus E-box) (dsDNA) DNA 1: GGAAGCAGACCACGTGGTCTGCTT DNA 2: AAGCAGACCACGTGGTCTGCTTCC | binds |
| Oligo I (dsDNA) DNA 1: GCAGCCTCCGTCATGTGTTTTCTGGA DNA 2: TCCAGAAAACACATGACGGAGGCTGC | binds |
